This data set can be described thus: yeast display, Sf9 membrane polyspecificity reagent, FACS + sequencing; frameworks hold sequencing errors. The procedure, abridged: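 In a synthetic yeast display library (Saccharomyces cerevisiae BJ5465), nanobody expression was induced with galactose for 36–48 hours. FACS gates were set low and high (top ~1%) using anti-HA fluorescence for expression and streptavidin fluorescence for binding of the Sf9 membrane reagent. Each polyreactivity label is drawn from the gate of origin.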
With “QVQLVESGGGLVQAGGSLRLSCAASGSTIPYNTMGWYRQAPGKERELVAAISSSCRSTYYADSVKGRFTISRDNAKKTVYLQMNSLKPEDTAVYYCNAQIVASYQARRYYYWGQGTQVTVSS”, the “polyreactivity (PSR sort gate)” value is “low polyreactivity”.

As to “QVQLVESGGGLVQAGGSLRLSCAASGSTIRGYAMGWYRQVTGKEREMGADISWSGTSTKYADSVKGRFTISRDNAKNTVYLQMNSLKPEDTAVYYCAKRYVRFPWRMDYWGQGTQVTVSS”, the “polyreactivity (PSR sort gate)” value is reported as “high polyreactivity”.

For “QVQLVESGGGLVQAGGSLRLSCAASGSTIRKYAMGWYRQAPGKERELVAAISARGGSTYYADSVKGRFTISRDNAKNTVYLQMNSLNPEDTAVYYCAADGYRPYSTFDYWGQGTQVTVSS”, the “polyreactivity (PSR sort gate)” value is given as “high polyreactivity”.

Consider “QVQLVESGGGLVQAGGSLRLSCAASGSTIRYYAMGWYRQAPGKERELVAAITSSGTSTYYADSVKGRFTISRDNAKNTVDLQMNRLKPEDTAVYYCAARPVYKWVSSRYDYWGQGTQVTVSS”, for which the “polyreactivity (PSR sort gate)” value is “low polyreactivity”.

Turning to “QVQLVESGGGLVQAGGSLRLSCAASGSTISPNAMGWYRQAPGKERELVPAITWSGGSNTYADSVKGRFTISRDNAKNTVYLQMNSLKPEDTAVYYCATVGYLYTPVVVTWWDWGDYWGQGTQVTVSS”, the “polyreactivity (PSR sort gate)” value is listed as “low polyreactivity”.

Take “QVQLVESGGGLVQAGGSLRLSCAASGSTITFYTMGWYRQEPGKEREFVADIDDSGGITYYADSVKGRFTISRDNAKNTVYLQMNSLKPEDTAVYSCAAEYWTACYWICVDYWGQGTQVTVSS”: the “polyreactivity (PSR sort gate)” value is given as “high polyreactivity”.

For the sequence “QVQLVESGGGLVQAGGSLRLSCAASGSTITYYTMGWYRQAPGKERELVAAISGSGGRTYYADSVKGRFTISRDNAKNTVYLQMNSLKPEDTAVYYCAAVYQLSRYDYWGQGTQVTVSS”, the “polyreactivity (PSR sort gate)” value is recorded as “high polyreactivity”.

For the sequence “QVQLVESGGGLVQAGGSLRLSCAASGSTIVVYAMGWYRQAPGKARELVAAITTSDDSTYYADSVKGRFTISRDNAKNTVYLQMNSLKPEDTAVYYCAATLRWQDGYSGQGTQVTVSS”, the “polyreactivity (PSR sort gate)” value is listed as “low polyreactivity”.

For “QVQLVESGGGLVQAGGSLRLSCAASGSTIVYYAMGWYRQAPGKERELVAAINYSSGSTYYADSVKGRFTISRDNSKNTVYLQMNSLKPEDTAVYYCATDLLYYQYYSEYDYWGQGTQVTVSS”, the “polyreactivity (PSR sort gate)” value is recorded as “high polyreactivity”.

For “QVQLVESGGGLVQAGGSLRLSCAASGSTIYFYAMGWYRQAPGKERELVAAITRSGSTYYADSVKGRFTISRDNAKNTVYLQLNSLKPEDTAVYYCNADQYYGCRYVYLRHYNYWGQGTQVTVSS”, the “polyreactivity (PSR sort gate)” value is listed as “high polyreactivity”.

Consider “QVQLVESGGGLVQAGGSLRLSCAASGSTIYLYDMGWYRQAPGKERELVATITSGTSTTYADSVKGRFTISRDYAKNTVYLQMNSLKPADTAVYYCNATDVGIITVGYGHGGYYWGQGTQVTVSS”, for which the “polyreactivity (PSR sort gate)” value is given as “low polyreactivity”.

As for “QVQLVESGGGLVQAGGSLRLSCAASGSTIYPYAMGWYRQAPGKERELVAAISSGGRTYYADSEKGRFTISRDKAKNTVYLQMNSLKPEDPAVYYCAARVTKKYRRTYDYWGQGTQVTVSS”, the “polyreactivity (PSR sort gate)” value is listed as “high polyreactivity”.

In the case of “QVQLVESGGGLVQAGGSLRLSCAASGSTIYRNAMVWYRQAPGKERELVAAISKSGGSTYYADTVKGRFTISRDNAKNTVYLQMNSQKPEDTAVYYCNSRYWVTTGGYWGQGTQVTVSS”, the “polyreactivity (PSR sort gate)” value is recorded as “high polyreactivity”.

In the case of “QVQLVESGGGLVQAGGSLRLSCAASGSTIYVYAMGWYRQAPGKERELVAAITDSGGSTYADSVKGRFTISRDNAKNTVYLQMNSLKPEDTAVYADSTYNWYYYYWGQGTQVTVSS”, the “polyreactivity (PSR sort gate)” value is “low polyreactivity”.

On to “QVQLVESGGGLVQAGGSLRLSCAASGSTLAGYAMGWSRQAPGKERELVAAITRRGGRTYYADSVKGRFTISRDNAKNTVYLQMNSLKPEDTAVYYCAAQRSVKVDYWGQGTQVTVSS”, for which the “polyreactivity (PSR sort gate)” value is given as “high polyreactivity”.

In the case of “QVQLVESGGGLVQAGGSLRLSCAASGSTLAIYAMGWYRQAPGKERELVAAISRSGGTTYYADSVKGRFTISRDNAKNTVYLQMNSLKPEDTAVYYCYPYFWYPDGYTYDYWGQGTQVTVSS”, the “polyreactivity (PSR sort gate)” value is “high polyreactivity”.

As to “QVQLVESGGGLVQAGGSLRLSCAASGSTLAPYVKGWYRQAPGKERELVAVISTRTGRTYYADSVKGRFTISRDNAKNTVYLQMNSLKPEDTAVYYCAAPVYPYQVQTYDYWGQGTQVTVSS”, the “polyreactivity (PSR sort gate)” value was “high polyreactivity”.

Take “QVQLVESGGGLVQAGGSLRLSCAASGSTLAVYAMGWYRQAPGKEREFVAAISWSGVSTYYADSVKGRFTISRDNAKNTVYLQMNSLKPEDTAVYYCAAKRVRALYGGSEGGYWGQGTQVTVSS”: the “polyreactivity (PSR sort gate)” value is reported as “low polyreactivity”.

In the case of “QVQLVESGGGLVQAGGSLRLSCAASGSTLAVYPMGWYRQAPGKERELVAVIDRGGSTYYADSVKGRFTISRDNAKNTVYLQMNSLKPEDTAVFNCNARRVKGYGYWGHGTQVTVSS”, the “polyreactivity (PSR sort gate)” value is “high polyreactivity”.

In the case of “QVQLVESGGGLVQAGGSLRLSCAASGSTLAYNAMGWYRQAPGKERELVATINFSGGSTYYADSVKGRFTISRDNSKNTVYLQMNSLKPEDTAVYYCNARGYWQYSPTKFDYWGQGTQVTVSS”, the “polyreactivity (PSR sort gate)” value was “low polyreactivity”.

Turning to “QVQLVESGGGLVQAGGSLRLSCAASGSTLDDYVMGWYRQAPGKERELVAAISSSGSGTYYADSVKGRFTISRDNAKNTVYLQMNSLKPEDTAVYYCAAAYSYSGYGYYTYDYWGQGTQVTVSS”, the “polyreactivity (PSR sort gate)” value is “low polyreactivity”.

For the sequence “QVQLVESGGGLVQAGGSLRLSCAASGSTLDEYAMGWYRQAPGKEREFVAAISWSDGSTYADSVKGRFTISRDNAKNTVYLQMNSLKPEDTAVYYCNAYAYVSLYYSGEYWGQGTQVTVSS”, the “polyreactivity (PSR sort gate)” value is reported as “low polyreactivity”.

In the case of “QVQLVESGGGLVQAGGSLRLSCAASGSTLDSNAMGWYRQATGKERELVAAIDWSGGSTYYADSVKGRFTISRDHAKNTVYLQMNSLKPEDTAVYYCAADDSSINYGDFDYWGQGTQVTVSS”, the “polyreactivity (PSR sort gate)” value is on record as “low polyreactivity”.

With “QVQLVESGGGLVQAGGSLRLSCAASGSTLDVYAMGWYRQAPGKERELVAAISWSVGSTYYAYSVKGRFKISRDNAKNTVYLQINRLKPEDTAVYNCAAEQYEYAYDGYDYWGQGTQVTVSS”, the “polyreactivity (PSR sort gate)” value is listed as “high polyreactivity”.

As to “QVQLVESGGGLVQAGGSLRLSCAASGSTLDYNDMGWYRQAPGKEREFVAAIRSNDGSTYYADSVKGRFTISRDNAKKTVYLQMNSLKPEDTAVYYCNKDVWDGYDWPEFDYLGQGTQVTVSS”, the “polyreactivity (PSR sort gate)” value was “low polyreactivity”.

As to “QVQLVESGGGLVQAGGSLRLSCAASGSTLGRNAMGWYRQAPGKERELVAAISSTGGSTSYADSVKGRFTISRDNAKNTVYLQMNSLKPEDTAVYYCAKRFSPRYYYWGQGTQVTVSS”, the “polyreactivity (PSR sort gate)” value is recorded as “high polyreactivity”.

Regarding “QVQLVESGGGLVQAGGSLRLSCAASGSTLGSYAMGWYRQAPGKERELVAAINTSGGNTYYADSVKGRFTISRDNAKNTVYLQMNSLKPEDTAVYYCNARYYGGGATFGYWGQGTQVTVSS”, the “polyreactivity (PSR sort gate)” value is recorded as “low polyreactivity”.

With “QVQLVESGGGLVQAGGSLRLSCAASGSTLGVNAMGWYRQAPGKEREFVSSITGRVGNTYYADSVKGRFTISRDNAKNTVYLQMNSLKPEDTAVYYCAARVKYTRYQSILDYYYWGQGTQVTVSS”, the “polyreactivity (PSR sort gate)” value was “high polyreactivity”.

For the sequence “QVQLVESGGGLVQAGGSLRLSCAASGSTLGYYAKGWYRQAPGKERELVATITRSGGNTYYADSVKGRFTISRDNAKNTVYLQMNSLKPEDTAVYYCAARRLYGSQRGYWGQGTQLTVSS”, the “polyreactivity (PSR sort gate)” value is “high polyreactivity”.

Consider “QVQLVESGGGLVQAGGSLRLSCAASGSTLHSYAMGWYRQAPGKERELVAALSFRGGSTYADSVKGRFTISRDNAKNTVYLQMNSLKPEDTAVYYCATRSTRADWYIVGYDYWGQGTQVTVSS”, for which the “polyreactivity (PSR sort gate)” value is “low polyreactivity”.

(Values after the nanobody polyreactivity screen of Harvey et al. (2022).)
